The source of these data is US20130022590, “Compositions Comprising Zinc Finger Domains and Uses Therefor” (published 2013).

Data set [1] deals with T1, ZRANB2-F12 (Homo sapiens, UniProt O95218 O95218:1-95). As to the kind of experiment: EMSA; dsRNA control. The settings on record: tags: GST removed for FA, gel shift and SPR; label: 32P. Here is the method: (§1) Gel Shift assays e.g., FIGS. 1B, 32A, were carried out using standard protocols. In brief, oligonucleotides were 5′ end-labelled with T4 polynucleotide kinase and annealed. Binding reactions were set up in a volume of 30 μL and contained a constant concentration of ³²P-labeled probe (0.1 pmol) and increasing concentrations of F12, in a buffer consisting of 10 mM Mops (pH 7.2), 50 mM KCl, 5 mM MgCl₂, 1 mM DTT, 0.03 mg/mL heparin, and 5% glycerol. Binding reactions were set up on ice and incubated at 4° C. for 30 min, after which time 15 μL of each sample was loaded onto a prerun 8% native polyacrylamide gel made up in 0.5× Tris-borate buffer, and electrophoresed (250V, 1 h, 4° C.). The oligonucleotide sequence used for gel shift experiments was […] (SEQ ID NO: 28); the site was mutated by changing the central GGU to CUG.
(§2) To determine whether the AGGUAA motif was sufficient for binding, the binding of the double finger construct F12 to a 17-nt RNA oligonucleotide containing a single AGGUAA motif was tested as described in Section 1.4 above with dsDNA, ssDNA, and dsRNA also tested as controls. […] Mutation of the central GGU, which is the most highly-conserved element in the SELEX consensus to CUG, abrogated the interaction, showing that the interaction is sequence specific (FIG. 1B).

A further data set has as its target T2, ZRANB2-F2 (untagged) (Homo sapiens, UniProt O95218 O95218:65-95).
T2 chain: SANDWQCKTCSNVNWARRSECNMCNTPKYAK
As to the kind of experiment: 15N-HSQC titration, 1:1 complex. Here is the method: For RNA titrations, deprotected RNA oligonucleotides i.e., having the sequence AGGUAA, […] (SEQ ID NO: 25), or […] (SEQ ID NO: 26) and the appropriate protein were dialyzed into 10 mM Mops (pH 7.2) and 0.5 mM DTT. Protein and RNA concentrations were calculated from A₂₈₀ and A₂₆₀, respectively. Final concentrations of complexes after titrations were typically approximately 0.1-0.5 mM. Assignments of the F2:RNA complex (1:1 or 1:1.2 molar ratio) were made at 25° C. as described above.
The inventors then carried out chemical-shift perturbation experiments, titrating short (6 or 10 nt) RNA oligonucleotides containing a single AGGUAA motif into ¹⁵N-labeled F2.

Data set [2] addresses T1, ZRANB2-F12. As to the kind of experiment: SPR; immobilised RNA; 750 nM F12; 10 mM phosphate pH 7.2, 50 mM NaCl, 25 C. The settings on record: tags: GST removed for FA, gel shift and SPR; label: 5'-biotin. Here is the method:
(§3) Competition binding experiments were carried out by flowing a solution of F12 over a streptavidin chip coated with a biotinylated ssRNA oligonucleotide (containing the sequence AGGUAA) in the presence of an unlabeled competitor oligonucleotide.
(§4) Binding experiments were performed in triplicate at 25° C. on a BIACORE 3000 (Biacore). A 5′ biotin-labeled RNA oligonucleotide containing the 5′ splice site from exon 3 of the Tra2β minigene ([…]; SEQ ID NO: 29) was purified by size exclusion chromatography (Superdex 75), and unlabeled competitor oligonucleotides i.e., […] from exon 1 (SEQ ID NO: 30), […] from exon 2 (SEQ ID NO: 31), and […] from exon 3 (SEQ ID NO: 32) were used without further purification. Protein and RNA samples were dialysed into 10 mM sodium phosphate (pH 7.2), 50 mM NaCl, 1 mM DTT, and 0.005% NP20 and filtered. The biotinylated RNA was heated to 65° C. for 5 min, cooled on ice, and then immobilized onto a streptavidin-coated sensor chip to a total of approximately 160 relative units. Solutions of 750 nM F12 in the presence of 1 molar equivalent of each competitor RNA were injected in random order over the sensor chip (at a flow rate of 20 μL/min for 120 sec) and allowed to undergo a 120-sec dissociation time; a further 300-sec interval was allowed between injections. Data were analyzed by using BIA Evaluation software (Biacore).

For data set [3], the target named is T1, ZRANB2-F12. In words: EMSA; dsDNA control. Conditions: tags: GST removed for FA, gel shift and SPR; label: 32P. Here is the method:
as §1, §2
(A gel shift assay detects complexes by their altered migration in electrophoresis.)

Data set [4] addresses T3, ZRANB2-F2 R82Q (Homo sapiens, UniProt O95218 O95218:65-95, R82Q).
T3 chain: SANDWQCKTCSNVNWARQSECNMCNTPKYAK
In words: FP. Conditions: label: 5'-fluorescein (FA) or 32P (gel shift). Here is the method:
(§5) Fluorescence Anisotropy titrations e.g., as shown in FIGS. 1D-F, 8 and 35, were carried out using standard protocols. In brief, 5′-Fluorescein-labeled RNA oligonucleotides were quantified by A₂₆₀, correcting for fluorescein absorbance by using A₄₉₃. For single-site experiments, the sequence […] (SEQ ID NO: 28), or single base mutants thereof, was used. For double-site experiments, two AGGUAA sites were separated by different length sequences as indicated, and the total oligonucleotide lengths were kept constant by the symmetrical addition of adenines to each end. […] Protein was titrated into this starting solution and anisotropy values measured on a Cary Eclipse fluorescence spectrophotometer fitted with manual polarizer and long-pass filters set to 475 and 515 nm for excitation and emission, respectively. […] Association constants were determined by nonlinear least squares regression analysis using a 1:1 binding model.
(§6) To determine whether changing arginine-82 (R82) would affect the binding preference of ZRANB2-F2 from GGU to GAU, the point mutation R82Q in ZNF 2 of ZRANB2 was made and the ability of both the wild type (W) protein and the R82Q mutant to bind to AGGUAA and AGAUAA was assessed by fluorescence anisotropy binding assays as described previously in Example 1.

Another data set has as its target T4, ZRANB2-F2 (Homo sapiens, UniProt O95218 O95218:65-95).
T4 chain: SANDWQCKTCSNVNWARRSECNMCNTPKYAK
In words: FP; GST-F2; 10 mM Tris pH 8.0, 50 mM KCl, 5 mM MgCl2, heparin, 25 C. Conditions: tags: GST fusion (FA); label: 5'-fluorescein (FA) or 32P (gel shift). Here is the method:
(§7) Fluorescence Anisotropy titrations e.g., as shown in FIGS. 1D-F, 8 and 35, were carried out using standard protocols. In brief, 5′-Fluorescein-labeled RNA oligonucleotides were quantified by A₂₆₀, correcting for fluorescein absorbance by using A₄₉₃. For single-site experiments, the sequence […] (SEQ ID NO: 28), or single base mutants thereof, was used. For double-site experiments, two AGGUAA sites were separated by different length sequences as indicated, and the total oligonucleotide lengths were kept constant by the symmetrical addition of adenines to each end. The anisotropy titrations were performed with a starting RNA concentration of 50 nM in a buffer comprising either 10 mM Tris (pH 8.0), 50 mM KCl, 5 mM MgCl₂, 0.05 mg/mL heparin, and 1 mM DTT (for GST fusion constructs) or 10 mM Mops (pH 7.3), 50 mM NaCl, 0.05 mg/mL heparin, and 1 mM DTT (for ZRANB2-F12). RNasin (Promega) was also added to the protein solution to a concentration of 2 units/μL. Protein was titrated into this starting solution and anisotropy values measured on a Cary Eclipse fluorescence spectrophotometer fitted with manual polarizer and long-pass filters set to 475 and 515 nm for excitation and emission, respectively. […] Association constants were determined by nonlinear least squares regression analysis using a 1:1 binding model.

Another data set has as its target T5, ZRANB2-F1 (Homo sapiens, UniProt O95218 O95218:1-45).
T5 chain: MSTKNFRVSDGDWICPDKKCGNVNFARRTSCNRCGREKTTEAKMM
As to the kind of experiment: FP; GST-F1; 10 mM Tris pH 8.0, 50 mM KCl, 5 mM MgCl2, heparin, 25 C. The settings on record: tags: GST fusion; label: 5'-fluorescein (FA) or 32P (gel shift). Here is the method:
as §5
Constructs of the two individual domains, F1 (FIG. 2, residues 1-45) and F2 (FIG. 2, residues 65-95), were cloned expressed and purified as GST fusions described in section 1.2 above, and tested their ability to bind ssRNA by fluorescence anisotropy as described in section 1.5 above, using a ssRNA oligonucleotide bearing a 5′ fluorescein tag and containing a single AGGUAA site.

The target of data set [5] is T1, ZRANB2-F12. In words: EMSA; 10 mM Mops pH 7.2, 50 mM KCl, 5 mM MgCl2, heparin, 4 C. The settings on record: tags: GST removed for FA, gel shift and SPR; label: 5'-fluorescein (FA) or 32P (gel shift). Here is the method:
as §1, §2

For another data set, the target named is T6, ZRANB2-F2 K72A (Homo sapiens, UniProt O95218 O95218:65-95, K72A).
T6 chain: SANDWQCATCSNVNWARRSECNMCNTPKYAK
In words: FP; much smaller change in affinity. The settings on record: label: 5'-fluorescein (FA) or 32P (gel shift). Here is the method: as §7, with “model. […]” for “model.”

In another data set the target is T7, ZRANB2-F2 T73A (Homo sapiens, UniProt O95218 O95218:65-95, T73A).
T7 chain: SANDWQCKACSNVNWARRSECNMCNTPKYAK
As to the kind of experiment: FP; much smaller change in affinity. The settings on record: label: 5'-fluorescein (FA) or 32P (gel shift). Here is the method:
as §7, with “model. […]” for “model.”

In data set [6] the target is T1, ZRANB2-F12. As to the kind of experiment: FP; higher affinity than shorter spacings; value in figure only. The settings on record: tags: GST removed for FA, gel shift and SPR; label: 5'-fluorescein. Here is the method: as §5
The importance of the spacing between AGGUAA motifs was assessed by measuring binding of F12 to double sites that were separated by −1 to 8 nt (where −1 denotes the sequence […] SEQ ID NO: 33; FIG. 1E, lanes 5-10).

The target of data set [7] is T1, ZRANB2-F12. In words: competition; strongest competitor in SPR competition. Conditions: tags: GST removed for FA, gel shift and SPR. Here is the method:
as §3
as §4, with “software (Biacore). […]” for “software (Biacore).”

Data set [8] deals with T1, ZRANB2-F12. In words: EMSA; interaction abrogated. The settings on record: tags: GST removed for FA, gel shift and SPR; label: 32P. Here is the method: as §1, §2
Data set [9] addresses T3, ZRANB2-F2 R82Q. As to the kind of experiment: FP; no preference between G and A at position 3. Conditions: label: 5'-fluorescein. Here is the method: as §5, §6
For data set [10], the target named is T1, ZRANB2-F12. As to the kind of experiment: 15N-HSQC titration. Conditions: tags: GST removed for FA, gel shift and SPR; label: 5'-fluorescein. Here is the method:
In brief, F2 and F12 were dialysed into 25 mM potassium phosphate (pH 7.0), 25 mM NaCl, and 0.5 mM DTT and concentrated to 0.4-1 mM. All spectra were recorded on a Bruker Avance 600 spectrometer equipped with a cryoprobe. 1H, 15N, and 13C assignments were obtained from HNCACB, CB-CA(CO)NH, HCCH-TOCSY, NOESY, and TOCSY spectra acquired at 2° C., 5° C., or 25° C. Dihedral angle restraints were obtained by analysis of an HNHA spectrum as previously described in Vuister G. W. and Bax A. 1993 J Am Chem Soc 115: 7772-7777. NMR data were processed by using XWINNMR/Topspin (Bruker) and analyzed with SPARKY (T. D. Goddard and D. G. Kneller, University of California, San Francisco). The structure of F2 was calculated from NOE and Ø angle constraints (e.g., FIGS. 5 and 9C) by using a protocol as described in Plambeck C. A., et al., 2003 J Biol Chem 278: 22805-22811.
¹⁵N-HSQC titrations were also carried out by using the double finger construct (F12; residues 1-95) and the double site oligonucleotide. AGGUAAAGGUAA (SEQ ID NO: 26). […] This titration (FIG. 9D) gave rise to the same pattern of chemical-shift changes as the two single-finger experiments. Only 3-4 new signals appeared, most likely from linker residues.

B1: 17-nt site as dsRNA (dsRNA)
RNA 1: GCAACCAGGUAAAGUCU
RNA 2: AGACUUUACCUGGUUGC
Consider B1, for which the binding result with ZRANB2-F12 [1] is listed as “no binding”.

B2: 10-nt AGGUAA RNA (ssRNA)
RNA: CCAGGUAAAG
As for B2, the binding result in the data set with ZRANB2-F2 (untagged) is recorded as “binds”.

B3: Tra2-beta exon 3 5' splice site (ssRNA)
RNA: CUCUGAAUCUAGGUAAGAAAG
As to B3, the binding result with ZRANB2-F12 [2] is given as “binds”.

B4: 17-nt site as dsDNA (dsDNA)
DNA 1: GCAACCAGGTAAAGTCT
DNA 2: AGACTTTACCTGGTTGC
modifications: [none]
B4: the binding result in the data set with ZRANB2-F12 [3] is recorded as “no binding”.

B5: 17-nt AGGUAA ssRNA (ssRNA)
RNA: GCAACCAGGUAAAGUCU
For the molecule B5, in the data set with ZRANB2-F2 R82Q [4], the binding signal is about 2 fold lower than WT F2. Also, the Ka with ZRANB2-F2 amounted to 1e+06 M⁻¹; with ZRANB2-F1, 3e+06 M⁻¹. Also, the binding result with ZRANB2-F12 [5], in the data set with ZRANB2-F2 K72A and with ZRANB2-F2 T73A was “binds” throughout.

B6: double site spacing 5 (penta-adenine) (ssRNA)
RNA: AGGUAAAAAAAAGGUAA
modifications: [none]
Turning to B6, in the data set with ZRANB2-F12 [6], the binding result is “binds”.

B7: Tra2-beta exon 3 5' splice site competitor (ssRNA)
RNA: CUCUGAAUCUAGGUAAGAAAG
As to B7, the binding result with ZRANB2-F12 [7] was “binds”.

B8: 17-nt CUG mutant ssRNA (ssRNA)
RNA: GCAACCACUGAAAGUCU
modifications: [none]
As for B8, the binding result in the data set with ZRANB2-F12 [8] is recorded as “no binding”.

B9: AGAUAA (3A) (ssRNA)
RNA: AGAUAA
Take B9: the binding signal in the data set with ZRANB2-F2 R82Q [9] was ~2 fold higher than WT F2 on same RNA.

B10: double site AGGUAAAGGUAA (ssRNA)
RNA: AGGUAAAGGUAA
Turning to B10, the binding result in the data set with ZRANB2-F12 [10] was “binds”.
